Laboratory results: paper PMC6172241, “A multisubstrate reductase from Plantago major: structure-function in the short chain reductase superfamily” (Scientific Reports, 2018)

Biological target: PmMOR (Plantago major multisubstrate oxido-reductase) (Plantago major)
Assay: SEC; Superdex 200, 20 mM Tris pH 8.0, 100 mM NaCl, 1 mM TCEP; oligomeric state judged from the elution volume

stoichiometry N: 2
Substance: PmMOR (Plantago major multisubstrate oxido-reductase) (enzyme)
